In publication PMC10679502 one finds Km of cleavage, FRET enzyme kinetics assay (Michaelis-Menten), in DDM, Km of cleavage, FRET enzyme kinetics assay (Michaelis-Menten), in bicelles (DMPC/CHAPSO) and Km of cleavage, FRET enzyme kinetics assay (Michaelis-Menten), in DDM, no inhibitor, 37 °C, 500 nM MCM.IAP data, which are given here for two molecules.

In the test the target is presenilin homolog from the methanogen Methanoculleus marisnigri JR1, wild type (Methanoculleus marisnigri JR1).

Primed or numbered codes have the meaning given here. * marks the point of attachment. EDANS′ = N-[2-[(5-sulfo-1-naphthalenyl)amino]ethyl]-L-α-glutamine (donor); DABCYL = 4-((4-(dimethylamino)phenyl)azo)benzoyl (quencher); Benzoyl(2-NHMe) = CNc1ccccc1C(=O)*

For the molecule {Benzoyl(2-NHMe)}-GGVVIATV-{Lys(DNP)} [C100FRET NMA-GGVVIATV-DNP], the Km of cleavage, FRET enzyme kinetics assay (Michaelis-Menten), in DDM stood at 7.5 µM and the Km of cleavage, FRET enzyme kinetics assay (Michaelis-Menten), in bicelles (DMPC/CHAPSO) worked out at 2.8 µM.

For the molecule {EDANS′}-LVIVGLTFAV-{DABCYL} [ErbFRET EDANS-…-DABCYL], the Km of cleavage, FRET enzyme kinetics assay (Michaelis-Menten), in DDM, no inhibitor, 37 °C, 500 nM MCM.IAP came out at 4.9 µM and the Km of cleavage, FRET enzyme kinetics assay (Michaelis-Menten), in bicelles (DMPC/CHAPSO) was 6.3 µM.
